8 sequences from the supplement of paper PMC11246515 can be followed below.

A short description of the data set: total protein half-life in vivo (active degradation + dilution); higher = more stable protein.
[1] abbreviates: E. coli NCM3722 delta-clpP delta-lon delta-hslV, growth: N-lim chemostat, doubling time 6 h.
The mark [2] stands for this setting: E. coli NCM3722 delta-clpP, growth: N-lim chemostat, doubling time 6 h.
[3] abbreviates: E. coli NCM3722 delta-hslV, growth: N-lim chemostat, doubling time 6 h.
[4] abbreviates: E. coli NCM3722 delta-lon, growth: N-lim chemostat, doubling time 6 h.
Where [5] appears, read: E. coli NCM3722 delta-smpB, growth: N-lim chemostat, doubling time 6 h.
Setting [6] is: wild type E. coli NCM3722, growth: C-lim chemostat, doubling time 3 h.
Where [7] appears, read: wild type E. coli NCM3722, growth: C-lim chemostat, doubling time 6 h.
[8] abbreviates: wild type E. coli NCM3722, growth: C-lim chemostat, doubling time 12 h.
Where [9] appears, read: wild type E. coli NCM3722, growth: N-lim chemostat, doubling time 6 h.
Setting [10] is: wild type E. coli NCM3722, growth: N-lim chemostat, doubling time 12 h.
The mark [11] stands for this setting: wild type E. coli NCM3722, growth: P-lim chemostat, doubling time 6 h.
The mark [12] stands for this setting: wild type E. coli NCM3722, growth: P-lim chemostat, doubling time 12 h.

± gives the standard deviation of the averaged measurements. Bounds are passed on as bounds.

As to “MAGHSKWANTRHRKAAQDAKRGKIFTKIIRELVTAAKLGGGDPDANPRLRAAVDKALSNNMTRDTLNRAIARGVGGDDDANMETIIYEGYGPGGTAIMIECLSDNRNRTVAEVRHAFSKCGGNLGTDGSVAYLFSKKGVISFEKGDEDTIMEAALEAGAEDVVTYDDGAIDVYTAWEEMGKVRDALEAAGLKADSAEVSMIPSTKADMDAETAPKLMRLIDMLEDCDDVQEVYHNGEISDEVAATL [P0A8A0]”, the “total protein half-life in vivo” value under setting [1] was determined as 5.28 ± 0.71 h; the “total protein half-life in vivo” value under setting [2] came to 4.61 ± 0.6 h; the “total protein half-life in vivo” value under setting [3] was 3.03 ± 0.19 h; the “total protein half-life in vivo” value under setting [4] stood at 3.29 ± 0.17 h; the “total protein half-life in vivo” value under setting [5] came to 2.94 ± 0.12 h; the “total protein half-life in vivo” value under setting [6] came to 2.524 ± 0.013 h. Moreover, the “total protein half-life in vivo” value runs as follows: under setting [7], 4.01 ± 0.095 h; under setting [8], 7.21 ± 0.53 h; under setting [9], 3.15 ± 0.058 h; under setting [10], 4.09 ± 0.034 h; under setting [11], 3.69 ± 0.66 h; under setting [12], 6.79 ± 0.84 h.
Consider “MSDMHSLLIAAILGVVEGLTEFLPVSSTGHMIIVGHLLGFEGDTAKTFEVVIQLGSILAVVVMFWRRLFGLIGIHFGRPLQHEGESKGRLTLIHILLGMIPAVVLGLLFHDTIKSLFNPINVMYALVVGGLLLIAAECLKPKEPRAPGLDDMTYRQAFMIGCFQCLALWPGFSRSGATISGGMLMGVSRYAASEFSFLLAVPMMMGATALDLYKSWGFLTSGDIPMFAVGFITAFVVALIAIKTFLQLIKRISFIPFAIYRFIVAAAVYVVFF”, for which the “total protein half-life in vivo” value reads like this: under setting [2], more than 8 h; under setting [4], 6.08 h; under setting [5], 5.89 h; under setting [6], more than 4 h; under setting [8], 11.9 h; under setting [11], 6.83 ± 0.96 h.
With “MVSKPFQRPFSLATRLTFFISLATIAAFFAFAWIMIHSVKVHFAEQDINDLKEISATLERVLNHPDETQARRLMTLEDIVSGYSNVLISLADSQGKTVYHSPGAPDIREFTRDAIPDKDAQGGEVYLLSGPTMMMPGHGHGHMEHSNWRMINLPVGPLVDGKPIYTLYIALSIDFHLHYINDLMNKLIMTASVISILIVFIVLLAVHKGHAPIRSVSRQIQNITSKDLDVRLDPQTVPIELEQLVLSFNHMIERIEDVFTRQSNFSADIAHEIRTPITNLITQTEIALSQSRSQKELEDVLYSNLEELTRMAKMVSDMLFLAQADNNQLIPEKKMLNLADEVGKVFDFFEALAEDRGVELRFVGDKCQVAGDPLMLRRALSNLLSNALRYTPTGETIVVRCQTVDHLVQVIVENPGTPIAPEHLPRLFDRFYRVDPSRQRKGEGSGIGLAIVKSIVVAHKGTVAVTSDARGTRFVITLPA”, the “total protein half-life in vivo” value came to 6.87 ± 0.17 h under setting [1]; 6.49 ± 0.093 h under setting [2]; 5.99 ± 1.1 h under setting [3]; 5.94 ± 0.29 h under setting [4]; 5.79 ± 0.62 h under setting [5]; 3.52 ± 0.32 h under setting [6]. For the same sequence, the “total protein half-life in vivo” value turned out to be 6.15 ± 0.53 h under setting [7]; 12.5 ± 1.1 h under setting [8]; 5.98 ± 0.11 h under setting [9]; 11.78 ± 0.088 h under setting [10]; 6.28 ± 0.53 h under setting [11]; 12.6 ± 0.38 h under setting [12].
Take “MNAYELQALRHIFAMTIDECATWIAQTGDSESWRQWENGKCAIPDRVVEQLLAMRQQRKKHLHAIIEKINNRIGNNTMRFFPDLTAFQRVYPDGNFIDWKIYQSVAAELYAHDLERLC”: the “total protein half-life in vivo” value was 4.85 h under setting [1], 2.05 h under setting [6], 3.14 ± 0.49 h under setting [7] and 5.24 ± 0.46 h under setting [8].
Turning to “MILHAQAKHGKPGLPWLVFLHGFSGDCHEWQEVGEAFADYSRLYVDLPGHGGSAAISVDGFDDVTDLLRKTLVSYNILDFWLVGYSLGGRVAMMAACQGLAGLCGVIVEGGHPGLQNAEQRAERQRSDRQWVQRFLTEPLTAVFADWYQQPVFASLNDDQRRELVALRSNNNGATLAAMLEATSLAVQPDLRANLSARTFAFYYLCGERDSKFRALAAELAADCHVIPRAGHNAHRENPAGVIASLAQILRF”, the “total protein half-life in vivo” value under setting [6] is 3.44 h.
“MLLAGAIFVLTIVLVIWQPKGLGIGWSATLGAVLALVTGVVHPGDIPVVWNIVWNATAAFIAVIIISLLLDESGFFEWAALHVSRWGNGRGRLLFTWIVLLGAAVAALFANDGAALILTPIVIAMLLALGFSKGTTLAFVMAAGFIADTASLPLIVSNLVNIVSADFFGLGFREYASVMVPVDIAAIVATLVMLHLYFRKDIPQNYDMALLKSPAEAIKDPATFKTGWVVLLLLLVGFFVLEPLGIPVSAIAAVGALILFVVAKRGHAINTGKVLRGAPWQIVIFSLGMYLVVYGLRNAGLTEYLSGVLNVLADNGLWAATLGTGFLTAFLSSIMNNMPTVLVGALSIDGSTASGVIKEAMVYANVIGCDLGPKITPIGSLATLLWLHVLSQKNMTISWGYYFRTGIIMTLPVLFVTLAALALRLSFTL [P0AB93]”: the “total protein half-life in vivo” value turned out to be 6.25 h under setting [3], 5.83 h under setting [9], 12.1 h under setting [10] and 13.8 ± 1.1 h under setting [12].
With “MRKIVAMAVICLTAASGLTSAYAAQLADDEAGLRIRLKNELRRADKPSAGAGRDIYAWVQGGLLDFNSGYYSNIIGVEGGAYYVYKLGARADMSTRWYLDGDKSFGFALGAVKIKPSENSLLKLGRFGTDYSYGSLPYRIPLMAGSSQRTLPTVSEGALGYWALTPNIDLWGMWRSRVFLWTDSTTGIRDEGVYNSQTGKYDKHRARSFLAASWHDDTSRYSLGASVQKDVSNQIQSILEKSIPLDPNYTLKGELLGFYAQLEGLSRNTSQPNETALVSGQLTWNAPWGSVFGSGGYLRHAMNGAVVDTDIGYPFSLSLDRNREGMQSWQLGVNYRLTPQFTLTFAPIVTRGYESSKRDVRIEGTGILGGMNYRVSEGPLQGMNFFLAADKGREKRDGSTLGDRLNYWDVKMSIQYDFMLK”, the “total protein half-life in vivo” value is, setting by setting: under setting [6], 3.55 ± 0.51 h; under setting [7], 7.84 h; under setting [8], 11.5 ± 2 h.
On to “MIDFGNFYSLIAKNHLSHWLETLPAQIANWQREQQHGLFKQWSNAVEFLPEIKPYRLDLLHSVTAESEEPLSAGQIKRIETLMRNLMPWRKGPFSLYGVNIDTEWRSDWKWDRVLPHLSDLTGRTILDVGCGSGYHMWRMIGAGAHLAVGIDPTQLFLCQFEAVRKLLGNDQRAHLLPLGIEQLPALKAFDTVFSMGVLYHRRSPLEHLWQLKDQLVNEGELVLETLVIDGDENTVLVPGDRYAQMRNVYFIPSALALKNWLKKCGFVDIRIADVSVTTTEEQRRTEWMVTESLADFLDPHDPGKTVEGYPAPKRAVLIARKP”, for which the “total protein half-life in vivo” value came to 5.27 ± 0.08 h under setting [1]; 4.888 ± 0.034 h under setting [2]; 5.33 ± 0.13 h under setting [3]; 5.97 ± 1.3 h under setting [4]; 5.36 ± 0.11 h under setting [5]; 3.11 ± 0.086 h under setting [6]. For the same sequence, the “total protein half-life in vivo” value under setting [7] stood at 5.84 ± 0.0082 h; the “total protein half-life in vivo” value under setting [8] was 13.1 ± 3.1 h; the “total protein half-life in vivo” value under setting [9] was determined as 5.59 h; the “total protein half-life in vivo” value under setting [10] amounted to 11.6 ± 2.1 h; the “total protein half-life in vivo” value under setting [11] was determined as 5.89 ± 0.94 h; the “total protein half-life in vivo” value under setting [12] is 12.3 ± 0.86 h.
